Earlier results on 1 substance are cited in paper PMC8828474.

This series has as its target Spike RBD (SARS-CoV-2) (UniProt P0DTC2).

Consider bamlanivimab, for which the Kd is 0.8 nM.
